# Experimental data taken from paper PMC7617353, “Molecular basis of FIGNL1 in dissociating RAD51 from DNA and chromatin” (Science (New York, N.Y.), 2024).
# B1: RAD51ΔN (RAD51 lacking the N-terminal 20 residues) (domain or fragment, human, UniProt Q06609 21-339, looked up)
# chain: GPQPISRLEQCGINANDVKKLEEAGFHTVEAVAYAPKKELINIKGISEAKADKILAEAAKLVPMGFTTATEFHQRRSEIIQITTGSKELDKLLQGGIETGSITEMFGEFRTGKTQICHTLAVTCQLPIDRGGGEGKAMYIDTEGTFRPERLLAVAERYGLSGSDVLDNVAYARAFNTDHQTQLLYQASAMMVESRYALLIVDSATALYRTDYSGRGELSARQMHLARFLRMLLRLADEFGVAVVITNQVVAQVDGAAMFAADPKKPIGGNIIAHASTTRLYLRKGRGETRICKIYDSPCLPEAEAMFAINADGVGDAKD
# notes: RAD51 lacking the N-terminal 20 residues; also called RAD51 with N-terminal 20 a.a. deleted
# B2: FIGNL1ΔN (human FIGNL1 residues 287-674) (domain or fragment)
# chain: KEDSSLPTFKTAKEQLWVDQQKKYHQPQRASGSSYGGVKKSLGASRSRGILGKFVPPIPKQDGGEQNGGMQCKPYGAGPTEPAHPVDERLKNLEPKMIELIMNEIMDHGPPVNWEDIAGVEFAKATIKEIVVWPMLRPDIFTGLRGPPKGILLFGPPGTGKTLIGKCIASQSGATFFSISASSLTSKWVGEGEKMVRALFAVARCQQPAVIFIDEIDSLLSQRGDGEHESSRRIKTEFLVQLDGATTSSEDRILVVGATNRPQEIDEAARRRLVKRLYIPLPEASARKQIVINLMSKEQCCLSEEEIEQIVQQSDAFSGADMTQLCREASLGPIRSLQTADIATITPDQVRPIAYIDFENAFRTVRPSVSPKDLELYENWNKTFGCGK
# B3: FIGNL1ΔN(E501Q) (domain or fragment, human, UniProt Q6PIW4 287-674, looked up)
# chain: KEDSSLPTFKTAKEQLWVDQQKKYHQPQRASGSSYGGVKKSLGASRSRGILGKFVPPIPKQDGGEQNGGMQCKPYGAGPTEPAHPVDERLKNLEPKMIELIMNEIMDHGPPVNWEDIAGVEFAKATIKEIVVWPMLRPDIFTGLRGPPKGILLFGPPGTGKTLIGKCIASQSGATFFSISASSLTSKWVGEGEKMVRALFAVARCQQPAVIFIDQIDSLLSQRGDGEHESSRRIKTEFLVQLDGATTSSEDRILVVGATNRPQEIDEAARRRLVKRLYIPLPEASARKQIVINLMSKEQCCLSEEEIEQIVQQSDAFSGADMTQLCREASLGPIRSLQTADIATITPDQVRPIAYIDFENAFRTVRPSVSPKDLELYENWNKTFGCGK
# notes: Six copies in the cryo-EM hexamer with ATP.Mg2+ and RAD51; also called E501Q mutant; source: E. coli BL21(DE3), purified as the wild type (HisTrap, StrepTrap, SEC)
# B4: RAD51 (natural protein, human, UniProt Q06609 1-339, looked up)
# chain: MAMQMQLEANADTSVEEESFGPQPISRLEQCGINANDVKKLEEAGFHTVEAVAYAPKKELINIKGISEAKADKILAEAAKLVPMGFTTATEFHQRRSEIIQITTGSKELDKLLQGGIETGSITEMFGEFRTGKTQICHTLAVTCQLPIDRGGGEGKAMYIDTEGTFRPERLLAVAERYGLSGSDVLDNVAYARAFNTDHQTQLLYQASAMMVESRYALLIVDSATALYRTDYSGRGELSARQMHLARFLRMLLRLADEFGVAVVITNQVVAQVDGAAMFAADPKKPIGGNIIAHASTTRLYLRKGRGETRICKIYDSPCLPEAEAMFAINADGVGDAKD
# modifications: cysteine reactive RED-MALEIMIDE label (only in the MST with labelled RAD51)
# notes: RAD51, expressed without tags; PDB 8R64 holds only residues 2-13 of it; also called RAD51 recombinase
# What was measured:
# [1] = target: T1, FIGNL1ΔN with an N-terminal YBBR-tag, labelled (human, UniProt Q6PIW4 287-674, labelled as previously described (refs 59, 60)); assay: MST
# T1 chain: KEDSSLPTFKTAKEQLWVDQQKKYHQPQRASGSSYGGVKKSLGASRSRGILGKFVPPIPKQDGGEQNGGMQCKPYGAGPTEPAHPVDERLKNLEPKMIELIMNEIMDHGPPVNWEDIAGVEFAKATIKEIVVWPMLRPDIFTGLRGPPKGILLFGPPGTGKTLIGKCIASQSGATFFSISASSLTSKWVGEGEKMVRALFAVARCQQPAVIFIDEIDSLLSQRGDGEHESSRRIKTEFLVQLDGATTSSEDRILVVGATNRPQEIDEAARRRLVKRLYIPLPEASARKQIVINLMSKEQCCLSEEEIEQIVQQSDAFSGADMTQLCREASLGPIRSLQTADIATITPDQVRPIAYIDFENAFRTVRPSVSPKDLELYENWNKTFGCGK
# [2] = target: T2, FIGNL1ΔN with an N-terminal YBBR-tag, labelled (human, UniProt Q6PIW4 287-674, labelled as previously described (refs 59, 60)); assay: MST; 100nM FIGNL1ΔN labelled at an N-terminal YBBR-tag with a serial dilution of RAD51 and RAD51ΔN; measured as in the labelled RAD51 experiments; conditions: both partners purified
# T2 sequence (looked up): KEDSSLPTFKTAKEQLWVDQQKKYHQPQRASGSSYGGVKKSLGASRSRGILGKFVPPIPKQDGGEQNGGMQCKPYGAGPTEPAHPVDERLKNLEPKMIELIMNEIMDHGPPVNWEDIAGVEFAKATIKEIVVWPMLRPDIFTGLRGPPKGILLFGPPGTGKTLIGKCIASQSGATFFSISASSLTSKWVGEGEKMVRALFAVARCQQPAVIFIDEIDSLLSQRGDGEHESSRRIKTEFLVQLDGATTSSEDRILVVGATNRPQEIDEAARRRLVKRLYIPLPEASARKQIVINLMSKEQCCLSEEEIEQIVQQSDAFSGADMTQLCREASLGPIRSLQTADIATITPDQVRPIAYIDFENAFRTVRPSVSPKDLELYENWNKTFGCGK
# RAD51 [3] = target: T3, RAD51 (human, UniProt Q06609 1-339, cysteine reactive RED-MALEIMIDE label (only in the MST with labelled RAD51)); assay: MST
# T3 chain: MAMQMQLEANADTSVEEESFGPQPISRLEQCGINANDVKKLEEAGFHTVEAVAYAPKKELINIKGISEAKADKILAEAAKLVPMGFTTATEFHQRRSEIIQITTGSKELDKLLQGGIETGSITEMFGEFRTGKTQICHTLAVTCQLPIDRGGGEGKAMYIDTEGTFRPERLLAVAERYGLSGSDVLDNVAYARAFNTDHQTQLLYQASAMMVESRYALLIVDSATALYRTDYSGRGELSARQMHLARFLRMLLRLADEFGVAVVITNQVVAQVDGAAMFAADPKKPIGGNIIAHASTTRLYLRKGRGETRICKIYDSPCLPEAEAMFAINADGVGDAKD
# [4] = target: T4, FIGNL1ΔN (human FIGNL1 residues 287-674) (human, UniProt Q6PIW4 287-674); assay: cryo-EM structure; 5µM FIGNL1ΔN with 1mM ATPγS and 5mM MgCl2, 15 minutes at 37°C in EM buffer; planar hexamer, 9.2Å map
# T4 construct: Monomer by SEC-MALLS after purification; hexamer with ATPγS by cryo-EM; source: E. coli BL21(DE3), purified (HisTrap, StrepTrap, SEC Superdex 200 increase)
# T4 sequence (looked up): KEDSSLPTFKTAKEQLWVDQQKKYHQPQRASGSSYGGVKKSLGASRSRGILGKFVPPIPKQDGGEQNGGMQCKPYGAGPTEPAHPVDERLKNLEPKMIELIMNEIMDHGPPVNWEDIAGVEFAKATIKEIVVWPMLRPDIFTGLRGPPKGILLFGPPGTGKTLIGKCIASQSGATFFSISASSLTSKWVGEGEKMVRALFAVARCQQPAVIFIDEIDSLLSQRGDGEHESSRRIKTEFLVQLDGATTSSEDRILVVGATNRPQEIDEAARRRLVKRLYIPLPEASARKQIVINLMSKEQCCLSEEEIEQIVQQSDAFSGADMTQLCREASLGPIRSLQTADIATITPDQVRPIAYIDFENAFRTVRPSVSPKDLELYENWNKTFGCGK
# [5] = target: the molecule itself; assay: cryo-EM structure; 10μM FIGNL1ΔN(E501Q) with 10μM RAD51, 1mM ATP, 5mM MgCl2, 20 mM Tris-HCl pH 8.0, 100 mM NaCl, 10 minutes at 37°C; whole complex ~8 Å, focused hexamer with RAD51 N-terminus 2.9 Å
# RAD51 [6] = target: B4; assay: as above; conditions: both partners purified
# [7] = target: T5, FIGNL1ΔN pore loop 1 mutant (K473E,W474A) (human, UniProt Q6PIW4 287-674, K473E | W474A); assay: MST; 100nM RED-MALEIMIDE labelled RAD51 with a serial dilution of FIGNL1ΔN (and mutants); 20mM Tris pH 8.0, 100mM NaCl, 1mM ATP, 5mM MgCl2, 0.05% TWEEN-20; 25°C; conditions: both partners purified
# T5 construct: also called PL mutant; source: E. coli BL21(DE3), purified as the wild type (HisTrap, StrepTrap, SEC)
# T5 sequence (looked up): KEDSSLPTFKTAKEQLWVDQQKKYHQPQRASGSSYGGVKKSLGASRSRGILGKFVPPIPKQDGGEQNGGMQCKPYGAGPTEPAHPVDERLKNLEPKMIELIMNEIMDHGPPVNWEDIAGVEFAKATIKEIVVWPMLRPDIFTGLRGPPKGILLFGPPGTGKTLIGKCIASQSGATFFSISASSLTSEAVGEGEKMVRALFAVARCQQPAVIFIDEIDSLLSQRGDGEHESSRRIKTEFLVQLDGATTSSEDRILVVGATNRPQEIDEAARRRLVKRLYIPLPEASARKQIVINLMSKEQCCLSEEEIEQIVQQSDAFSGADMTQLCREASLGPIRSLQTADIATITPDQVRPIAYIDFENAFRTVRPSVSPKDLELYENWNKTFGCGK
# [8] = target: T4, FIGNL1ΔN (human FIGNL1 residues 287-674); assay: as above; conditions: both partners purified
# FIGNL1ΔN(E501Q) [9] = target: B3; assay: as above; conditions: both partners purified
# FIGNL1ΔN(E501Q) [10] = target: T6, FIGNL1ΔN(E501Q) (human, UniProt Q6PIW4 287-674, E501Q); assay: MST
# T6 sequence: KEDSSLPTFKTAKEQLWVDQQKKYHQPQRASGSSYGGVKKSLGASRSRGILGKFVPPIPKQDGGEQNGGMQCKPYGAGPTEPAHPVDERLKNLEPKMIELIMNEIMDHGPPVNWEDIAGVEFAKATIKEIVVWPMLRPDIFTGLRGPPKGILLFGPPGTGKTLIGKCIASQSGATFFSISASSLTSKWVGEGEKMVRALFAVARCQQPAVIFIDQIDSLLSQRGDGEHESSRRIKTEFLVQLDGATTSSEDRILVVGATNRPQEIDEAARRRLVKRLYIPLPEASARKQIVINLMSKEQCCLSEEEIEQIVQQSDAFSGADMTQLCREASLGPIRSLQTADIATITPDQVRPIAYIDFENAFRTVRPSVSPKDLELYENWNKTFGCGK
# [11] = target: T7, FIGNL1ΔN pore loop 1 mutant (K473E,W474A) (human, UniProt Q6PIW4 287-674, K473E | W474A); assay: MST
# T7 sequence: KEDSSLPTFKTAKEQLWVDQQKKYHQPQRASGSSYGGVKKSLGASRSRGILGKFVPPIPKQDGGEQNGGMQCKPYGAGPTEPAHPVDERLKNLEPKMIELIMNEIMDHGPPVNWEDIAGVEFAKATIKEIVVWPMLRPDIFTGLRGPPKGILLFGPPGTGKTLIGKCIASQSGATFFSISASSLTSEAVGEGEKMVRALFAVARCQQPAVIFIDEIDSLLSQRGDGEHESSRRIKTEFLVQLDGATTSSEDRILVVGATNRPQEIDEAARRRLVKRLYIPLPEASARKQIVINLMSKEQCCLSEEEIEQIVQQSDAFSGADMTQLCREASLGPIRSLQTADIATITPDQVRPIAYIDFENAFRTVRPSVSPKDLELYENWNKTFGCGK
binder,measurement,setting,value
B1,Kd,[1],315 nM
same,binding result,[2],binds
B2,Kd,RAD51 [3],328 nM
same,stoichiometry N,[4],6
B3,stoichiometry N,[5],6
same,stoichiometry N,RAD51 [6],2 RAD51 monomers per FIGNL1 hexamer
B4,binding result,[7],binds
same,binding result,[8],binds
same,binding result,FIGNL1ΔN(E501Q) [9],binds
same,Kd,FIGNL1ΔN(E501Q) [10],279 nM
same,Kd,[11],340 nM
same,Kd,[1],109 nM
